The source of these data is patent US20130130315A1 (ADVANCECOR, published 2013).

This assay has as its target T1, CD133 protein (UniProt O43490 20-865, limits assumed).
T1 construct: whole, on cells; Presented on AC133/293 cells: paraformaldehyde-fixed in the cellular ELISA, unfixed in the phage FACS; also called CD133 antigen; AC133
T1 sequence (looked up): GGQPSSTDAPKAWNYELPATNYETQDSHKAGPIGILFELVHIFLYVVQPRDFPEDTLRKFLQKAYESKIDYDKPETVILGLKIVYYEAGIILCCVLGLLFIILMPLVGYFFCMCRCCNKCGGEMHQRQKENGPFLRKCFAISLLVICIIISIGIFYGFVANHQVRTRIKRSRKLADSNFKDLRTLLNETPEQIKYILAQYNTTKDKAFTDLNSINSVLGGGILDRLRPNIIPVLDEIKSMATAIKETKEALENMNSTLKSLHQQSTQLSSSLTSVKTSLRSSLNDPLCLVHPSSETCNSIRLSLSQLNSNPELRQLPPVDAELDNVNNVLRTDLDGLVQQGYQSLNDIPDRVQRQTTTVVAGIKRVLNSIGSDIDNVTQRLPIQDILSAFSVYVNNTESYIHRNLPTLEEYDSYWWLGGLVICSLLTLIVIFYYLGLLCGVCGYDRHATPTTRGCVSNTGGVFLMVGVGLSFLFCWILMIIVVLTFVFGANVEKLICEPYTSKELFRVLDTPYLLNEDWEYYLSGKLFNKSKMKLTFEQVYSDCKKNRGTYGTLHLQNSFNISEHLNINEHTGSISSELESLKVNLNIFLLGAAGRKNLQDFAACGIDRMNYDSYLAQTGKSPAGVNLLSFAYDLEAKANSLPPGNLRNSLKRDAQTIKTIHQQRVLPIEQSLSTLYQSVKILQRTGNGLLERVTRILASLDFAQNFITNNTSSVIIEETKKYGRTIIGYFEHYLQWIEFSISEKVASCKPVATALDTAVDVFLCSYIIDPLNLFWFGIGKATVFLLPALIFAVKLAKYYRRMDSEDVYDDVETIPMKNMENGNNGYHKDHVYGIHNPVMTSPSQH
In words: cellular ELISA, threefold dilution series on fixed AC133/293 cells. How it is done: 1×10⁵ cells in 0.2 ml of medium were added to each well and incubated o/n at 37° C., 5% CO₂ to allow cells to attach to the surface of the plate. The next day wells were washed once with 0.2 ml PBS and fixed with 0.1 ml 2% Paraformaldehyde (in PBS, pH 7.4) for 10-20 min at RT. Wells were washed with PBS-T (PBS+0.1% Tween-20) and blocked with either 1× RotiBlock or 3% milk in PBS-T for 1 hour at RT. After washing with PBS-T, serial dilutions of the respective antibody were added to the wells and incubated at RT for at least one hour while shaking. After washing with PBS-T, 0.1 ml of StrepMAb-Classic-HRP (1:10000 in PBS-T, lba BioTagnology, Göttingen, Germany) or of horseradish peroxidase linked anti-mouse IgG (1:10000 in PBS-T, Dianova, Hamburg, Germany) was added and incubated at RT for one hour with shaking. After washing with PBS-T, 0.1 ml of 1-Step Ultra TMB-ELISA substrate (Thermo Scientific, Braunschweig, Germany) was added and incubated until an adequate blue staining developed. To stop the reaction 0.1 ml 1 M H₂SO₄ was added to each well and absorbance at 450 nm and 595 nm as a reference was measured with an infinite F200 plate reader (TECAN, Männedorf, Switzerland). […] Signals were detected using an anti-mouse IgG-HRP antibody (1:10000 in PBS-T, Dianova, Hamburg, Germany). […]
A general note: ELISA stands for enzyme-linked immunosorbent assay.

B1: single chain antibody scFv-hl (scFv, not shown: large carriers)
scFv: EVQLQQSGPDLMKPGASVKISCKASGYSFTNYYVHWVKQSLDKSLEWIGYVDPFNGDFNYNQKFKDKATLTVDKSSSTAYMHLSSLTSEDSAVYYCARGGLDWYDTSYWYFDVWGAGTAVTVSSGGGGSGGGGSGGGGSDILMTQSPKSMSMSLGERVTLSCKASENVDTYVSWYQQKPEQSPKVLIYGASNRYTGVPDRFTGSGSATDFSLTISNVQAEDLADYHCGQSYRYPLTFGAGTKLELK
notes: Orientation heavy-light; Produced and purified solely from E. coli
As for B1, the binding result is reported as “no binding”.
